Experimental findings from PMC8790125 are described below.

The assay concerns the target Rae1–Nup98_(GLEBS) complex, P78406. Briefly: ITC. In general terms: Isothermal titration calorimetry measures the heat released or taken up as one component is titrated into another.

One may read the Kd as the equilibrium constant for the complex coming apart. Higher therefore signals a looser complex. A word on the stoichiometry N: it is the number of molecules, sites or subunits per partner or assembly. KPLTKKNYSELDDEEPMELDYP (modifications not checked) [SARS-CoV-1 Orf6CTT (22-mer peptide, residues 42–63 of SARS-CoV-1 Orf6)]: the dissociation constant (Kd) was found to be 0.278 µM and the stoichiometry N amounted to 1.
